Assay results: patent EP1396498A1, “A pair of polypeptides with specific and strong interaction” (Max-Planck-Gesellschaft zur Förderung der Wissenschaften …, priority 2002, dated 2004)

T1: GST-Dsl1p (Saccharomyces cerevisiae, UniProt P53847)
T1 construct: when introduced into full length GST-Dsl1p; made in house; host or cells: E. coli (BL21DE3 or C41DE3)
T1 sequence (P53847 1-754): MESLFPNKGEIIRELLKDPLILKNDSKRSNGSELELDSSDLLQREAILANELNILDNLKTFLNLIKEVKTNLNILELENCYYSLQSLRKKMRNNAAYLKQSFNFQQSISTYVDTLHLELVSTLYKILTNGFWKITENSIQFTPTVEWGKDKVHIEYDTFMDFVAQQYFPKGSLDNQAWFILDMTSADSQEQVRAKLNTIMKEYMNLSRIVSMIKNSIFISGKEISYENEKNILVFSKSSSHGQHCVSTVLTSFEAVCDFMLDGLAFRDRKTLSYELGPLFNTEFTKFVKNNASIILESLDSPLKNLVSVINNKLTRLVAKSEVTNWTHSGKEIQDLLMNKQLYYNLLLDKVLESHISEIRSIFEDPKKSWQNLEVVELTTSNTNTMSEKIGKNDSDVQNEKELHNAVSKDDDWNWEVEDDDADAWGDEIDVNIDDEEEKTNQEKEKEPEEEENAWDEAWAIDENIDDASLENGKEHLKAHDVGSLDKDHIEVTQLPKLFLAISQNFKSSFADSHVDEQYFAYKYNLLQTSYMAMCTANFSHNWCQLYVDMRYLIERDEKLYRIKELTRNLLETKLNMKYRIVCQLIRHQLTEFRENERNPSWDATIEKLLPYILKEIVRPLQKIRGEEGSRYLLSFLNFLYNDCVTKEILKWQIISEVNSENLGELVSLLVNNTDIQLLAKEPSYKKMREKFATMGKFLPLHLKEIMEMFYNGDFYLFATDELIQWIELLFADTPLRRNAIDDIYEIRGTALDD

T2: GST-Dsl1p (S. cerevisiae (yeast), UniProt P53847 1-754)
T2 construct: Made in E. coli and immobilised on glutathione-Sepharose 4B; also called GST-tagged Dsl1p; full length GST-Dsl1p; not shown: glutathione S-transferase (GST) encoded by pGEX-TT (pGEX-2T with modified polylinker); placement and linker residues not
T2 sequence (looked up): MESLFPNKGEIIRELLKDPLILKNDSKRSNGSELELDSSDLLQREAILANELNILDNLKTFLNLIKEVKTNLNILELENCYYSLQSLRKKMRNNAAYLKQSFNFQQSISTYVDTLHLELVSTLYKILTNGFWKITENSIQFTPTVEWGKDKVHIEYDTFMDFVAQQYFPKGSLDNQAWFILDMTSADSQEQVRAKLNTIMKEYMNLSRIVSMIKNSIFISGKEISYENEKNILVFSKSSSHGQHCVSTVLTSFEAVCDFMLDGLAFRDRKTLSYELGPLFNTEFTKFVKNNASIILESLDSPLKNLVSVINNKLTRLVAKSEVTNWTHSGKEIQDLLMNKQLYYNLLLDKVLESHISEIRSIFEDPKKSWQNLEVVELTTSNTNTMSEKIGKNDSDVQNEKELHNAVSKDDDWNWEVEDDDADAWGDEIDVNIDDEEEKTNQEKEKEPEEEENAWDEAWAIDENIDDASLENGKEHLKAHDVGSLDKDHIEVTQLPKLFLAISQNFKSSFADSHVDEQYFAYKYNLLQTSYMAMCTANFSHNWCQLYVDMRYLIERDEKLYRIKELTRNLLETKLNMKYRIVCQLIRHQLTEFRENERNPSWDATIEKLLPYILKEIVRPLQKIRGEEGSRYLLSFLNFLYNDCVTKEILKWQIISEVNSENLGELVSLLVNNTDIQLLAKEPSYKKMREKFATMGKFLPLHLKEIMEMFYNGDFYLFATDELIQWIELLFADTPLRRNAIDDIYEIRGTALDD


Legend:
GST-Dsl1p [1] = target: T1, GST-Dsl1p; test: peptide spot overlay assay: 13-mer δ-COP peptides on cellulose membrane; type: binding; settings: 13-mer peptides spanning amino acids 191-302 of δ-COP; detection with anti-Dsl1p antibodies
From the text: To further delineate the Dsl1p binding domain in δ-COP 13-mer peptides spanning amino acids 191-302 of δ-COP were synthesized on a cellulose membrane (overlap in sequence by 10 amino acids; Jerini; Berlin, Germany) and probed with to GST-Dsl1p. Anti-Dsllp antibodies were used to detect bound GST-Dsl1p. […] We cannot exclude that peptides from position 248 to 270 also bind to Dsl1p since anti-Dsl1 antibody alone gave already a weak signal with peptides derived from this region. […] To this resin we applied crude extract of E. coli cells producing a chimeric protein consisting of GST and the δ-COP binding domain (GST-L4, "WxW"; L4 = D-type-polypeptide; SED ID NO 1 ([…]-NIDDEEEKT)). After washing thoroughly, bound proteins were eluted and analyzed by SDS-PAGE followed by Coomassie staining. […]
To analyze the Ds11p binding region within the Ret2 protein overlapping 13-mer peptides (overlap 10 residues each) spanning the region between residue 191 and 302 were directly synthesized on a cellulose membrane (Jerini; Berlin, Germany). […] After 2 h incubation with purified GST-Ds11p in blocking buffer, the membrane was washed three times with Tris/HCl-buffer and bound GST-Ds11p was detected by using α-Dsl1p antibodies and the ECL detection system (AmershamPharmaciaBiotech).

GST-Dsl1p [2] = target: T2, GST-Dsl1p; test: peptide spot overlay on cellulose membrane, detected with anti-Dsl1p antibodies

signal of bound GST-Dsl1p (GST-Dsl1p [1])	binding result (GST-Dsl1p [2])	Molecule
strongest signal	–	R-type-peptide: peptide representing residues 242 to 254 of δ-COP, RAGHSATGGMKLG
–	binds	RAGHSATGGMKLG (A spot on a peptide array of 13-mers that overlap by 10 residues and span aa 191-302; also called R-type-peptide) [13-mer peptide representing residues 242 to 254 of δ-COP, synthesized on a cellulose membrane]
